Reference: PMC12242641 (ACS Omega, 2025)

Biological target: the molecule itself
Test: […]; 20 mM sodium phosphate pH 7, 100 mM NaCl, 2 mM TCEP

B1: human tripartite motif-containing protein 25 (TRIM25), residues 183-380 (domain or fragment, UniProt Q14258 183-380, looked up)
chain: HKTCSPASLSQASADLEATLRHKLTVMYSQINGASRALDDVRNRQQDVRMTANRKVEQLQQEYTEMKALLDASETTSTRKIKEEEKRVNSKFDTIYQILLKKKSEIQTLKEEIEQSLTKRDEFEFLEKASKLRGISTKPVYIPEVELNHKLIKGIHQSTIDLKNELKQCIGRLQEPTPSSGDPGEHDPASTHKSTRPV
notes: not shown: His6, N-terminal, cleaved; SUMO, N-terminal, cleaved
stoichiometry N: 2
